Results taken from PMC6739308 (Scientific Reports, 2019).

Target: T1, GST-p53 fusion protein (UniProt P04637 1-393)
T1 construct: p53 fused to GST
Assay: pull-down; 10 μl GST beads bound with 2 μg of GST or GST-p53, purified Flag-tagged SMG7 proteins in solution; binding buffer BC100 with 1 μg/μl BSA, overnight at 4 °C, five washes, western blot
Settings: both partners purified

T1 sequence (P04637 whole entry, the tested form may be a part): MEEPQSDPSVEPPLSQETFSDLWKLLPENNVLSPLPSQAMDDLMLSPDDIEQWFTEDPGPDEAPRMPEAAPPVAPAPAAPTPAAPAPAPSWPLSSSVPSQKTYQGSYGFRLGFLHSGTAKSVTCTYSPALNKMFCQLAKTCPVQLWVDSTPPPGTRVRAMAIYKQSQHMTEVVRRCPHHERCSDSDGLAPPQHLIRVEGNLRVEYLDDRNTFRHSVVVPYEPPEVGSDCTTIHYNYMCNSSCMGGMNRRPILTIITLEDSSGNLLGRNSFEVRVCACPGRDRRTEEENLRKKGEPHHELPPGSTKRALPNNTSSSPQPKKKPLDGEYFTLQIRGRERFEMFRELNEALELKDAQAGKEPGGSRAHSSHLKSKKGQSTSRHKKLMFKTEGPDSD

B1: purified FH-SMG7 C-terminal fragment 815–1091aa (domain or fragment, UniProt Q92540-2 815-1091, looked up)
chain: PSEVKVPEFYWDSSYSMADNRSVMAQQANIDRRGKRSPGVFRPEQDPVPRMPFEKSLLEKPSELMSHSSSFLSLTGFSLNQERYPNNSMFNEVYGKNLTSSSKAELSPSMAPQETSLYSLFEGTPWSPSLPASSDHSTPASQSPHSSNPSSLPSSPPTHNHNSVPFSNFGPIGTPDNRDRRTADRWKTDKPAMGGFGIDYLSATSSSESSWHQASTPSGTWTGHGPSMEDSSAVLMESLKSIWSSSMMHPGPSALEQLLMQQKQKQQRGQGTMNPPH
notes: numbers count on a form of 1091 residues; source: purified; not shown: Flag, N-terminal, kept; HA, N-terminal, kept
binding result: binds
